Experimental data: the nanobody polyreactivity screen of Harvey et al. (2022)

Assay: yeast display, Sf9 membrane polyspecificity reagent, FACS + sequencing; frameworks hold sequencing errors
Method in brief: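 Synthetic nanobody libraries on Saccharomyces cerevisiae BJ5465 were galactose-induced for 36–48 hours, stained 1 hour at 4 °C with 10% biotinylated, detergent-solubilized Sf9 membrane reagent and enriched on streptavidin microbeads. FACS then separated cells into low and high (top ~1%) gates by anti-HA (expression) and streptavidin (reagent binding) fluorescence. Genes were colony-PCR amplified, MiSeq 2 × 250 sequenced and CDR-length filtered. A clone's polyreactivity label is that of its gate of origin.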

Sequence	polyreactivity (PSR sort gate)
QVQLVESGLGLVQAGGSLRLSCAASGTTLLGYAMGWYRQAPGKERELVAAITGSGGRTSYADSVKGRFTISRDNAKNTVYLQMNSLKPEDTAVYYCAAARRYHFQRFNYWGQGTQVTVSS	high polyreactivity
QVQLVESGGGLVQAGGSLRLSCAASGRTFRGNAMGWYRQAPGKERELVAVITSGDSTYYADSVKGRFTISRDNAKNTVYLQMNSLKPEDTAVYYCATKSRFSRGKAYYYWGQGTQVTVSS	high polyreactivity
QVQLVESGGGLVQAGGSLRLSCAASGLTFQYYVMGSYRQAPGKERELVAAISSGGSTYYADSVKGRFTISRDNAKNTVYLQMNSLKPEDTAVYYCAAEAGYAYPLWPYTFPFEYWGQGTQVTVSS	low polyreactivity
QVQLVESGGGLVQAGGSLRLSCAASGFTSAPYAMGWNRQAPGKERELVAAISSGDTTSYADSVKGRFTISRDNEKNTVYFQMNSLKPEDTAVYYCAAVYFNVIESYKTAGYDYWGQGTQVTVSS	low polyreactivity
QVQLVESGGGLVQAGGSLRLICAASGFTIYRYAMGWYRQAPGKERELVATIRRGGSTKYADSVKGRFTISRDNAKNTVYLQMNSLKPEDTAVYYCNARYYAAPDKYYYWGQGTQVTVSS	low polyreactivity
QVQLVESGGGLVQAGGSLRLSCAASGRILDYNAMGWYRPAPGKERELVAAITRRGGSTYYADSVKGRFTISRDNAKNTVYLQMNSLKPEDTAVYYCNARWSTTAHTRFGYWGQGTQVTVSS	low polyreactivity
QVQLVDSVGGLVQAGGSLRLSCAASGFTFWYYAMGWYRQAPGKERELVAAISSGGSTYYADSVKGRFTISRDNAKNTVYLQMNSLKPEDTAVYYCAARIGARGRGGKDRVYYWGQGTQVTVSS	high polyreactivity
QGQLVESGGGLVQAGGSLRLSCAASGSIFPGYTMGWYRQAPGKERELVAVISSDGRTHYADSVKGRFTISRDNAKNTVYLQMNSLKPEDSAVYYCAAAKRAYGYVLHAFYYWGQGTQVTVSS	high polyreactivity
QVQLVESGGGLVQAGGSLRLSCAASGSIFYYYAMGWYRQAPGTERELVAAIYNGGSTYYADSVKGRFTISRDNAKNTVYLQMNSLKPEDTAVYYCNAGYSYWYRDLGYDSWGQGTQVTVSS	low polyreactivity
QVQIVESGGGLVQAGGSLRLSCAASGFNYRGYAMGWYRQAPGKERELVASIRWNGGSTYYADSVKGRFTISRDNAKNTVYLLMNSLKPEDTAVYYCAAAYRYYGVAYGYDWGQGTQVTVSS	high polyreactivity
QVQLVESGGGLVQAGGSLRLSCAASGRTFYYYAMGWSRQAPGKERELVAAINRGGSTNYADSVKGRFTISRDNAKNTVYLQMNSQKPEATAVYDCNAAYYGPVRSKYVYWGQGTQVTVSS	high polyreactivity
QVQLVESGGGLVQAGGSLRISCAASGRTFSNYAMGWYRQAPGKERELVAAISGSGGSTRYADSVKGRFTISRDNANITVYLQMNSLKPEDTAVYYCAARGAGPLHNHYSWGQGTQVTVSS	high polyreactivity
QVQLVESGGGLVQAGGSLRLSCAASGSTFYLYAMGWYRPAPGKERELVASITSGDGSTYYADSVKGRFTISRDNAKNTVYLQMNSLKPEDTAVYYCNAVLEGWFYQYDYWGQGTQVTVSS	low polyreactivity
QVQLVESGGGLVQAGGSLRLSCAASGLIFARYVMGWSRQAPGKERELVADIDKGGGSTYYADSVKGRFTISRDNAKNTVYLQMNSLKPEDTAVYYCNADFDGWWWDDYWGQGTQVTVSS	high polyreactivity
QVQLVESGGGLVQAGGSLRLSCAASGFTFTENVMGWYRQAPGKEREFVAAITYIGGRTYYADSVKGRFTISRDNAKNTVYFQMNSLKPEDTAVYYCAADWAYYVDSYLYYTFDYWGQGTQVTVSS	low polyreactivity
QVQLVESGGGLVQAGGSLRLSCAASGSIFYGNAMGWYRQAPGKERELVAAITRRGGRTYYADSVKGRFTISRDNAKNTVYLQMNSLKPEDTAVYYCNKDVGVAVEMGYWGQGTQVTVSS	high polyreactivity
QVQLVESGGGLVQAGGSLRLSCAASGSILGTYAMGWYRQAPGKERELVAAISASGRTSYADSEKGRFTISRDNAKNTVYLQMNSLKPEDTAVYDCNASNYFVLINDPDAAPWLYDYWGHGTQVTVSS	low polyreactivity
QVQLVESGGGLVQAGGSLRLSCAASGSIFNRYARGWYRQAPGKERELVAAISSTGSTYYADSVKGRFTISRDNAKNTVYLQMNSLKPEDTAVYYCNADATHDWLRVDTYEYWGQGTQVTVSS	low polyreactivity
QVQLVESGGGLVQAGGSLRLSCAASGINYDYYTMGWYRQAPGKERELVASINFSGGSTYYADSVKGRFTISRDNAKNTVYLQMNSLKPEDTAVYYCAAVSVSFWGGGRYYYWGQGTQVTVSS	high polyreactivity
QVQLVESGGGLVQAGGSLRLSCAASGSTFYYYAMGWYRQAPGKEREFVASISSRGTSTYYADSVKGRFTISRDHAKNTVYLQMNSMKPEDTAVYYCAARGWGPTRAYDYWGQGTQVTVSS	high polyreactivity
QVQLVESGGGLVQAGGSLRLSCAASGIIFVINAMGWYRQAPGKERELVATITGSGTTNYADSVKGRFTISRDNAKNTVYLHMNSLKPEDTAVYYCARDDTEYARTGAYDYWGQGTQVTVSS	low polyreactivity
QVQLVESGRGLVQAGGSLRLSCAASGITYGNNAMGWYRQAPGKERELVATITSSGGSTYYADSVKGRFTISRDNAKNTVYSQMNSLKPEDTAVYYCAARQPGTRYPYDYWGQGTQVTVSS	high polyreactivity

Sequence	polyreactivity (PSR sort gate)
QVQLVESGGGLVQAGGSLRLSCAASGRNFGSYAMGWYRQAPGKERELVAGIRSVGSTNYADSVKGRFTISRDNAKNTVYLQMNSLKPEDTAVYYCAARLWHLSYAGQGGDYWGQGTQVTVSS	low polyreactivity
QVQLVESGGGLVQAGGSLRLSCAASGSIFSYYAMGWYRQAPGKERELVAAITTSGGSTYYADSVKGRFTISRDNAKNTVYLQMNSLKPEDTAVYYCNAGPYWWYYGEDYWGQGSQVTVSS	low polyreactivity
QVQLVESGGGLVQAGGSLRLSCAASGITFTSYVMGWYRQAPGKERELVAAIRWSGGRTYYADSVKGRFTISRDNAKNTVYLQINSLKPEDTAVYYCAAYPSYYGDSGLRYDYWGQGTQVTVSS	high polyreactivity
QVQLVESGGGLVQAGGSLRLSWAASGRTFKSNAMGWYRPAPGKERELVAAISWGGGSTYYADSVKGRFTISRDNAKNTVYLQMNSLKPEDTAVYYCARRDIYGSYGFYTGGVDYWGQGTQVTVSS	low polyreactivity
QVQLVESGGGLVQAGGSLRLSCAASGITFEYYTMGWYRQAPGKERELVAAITSGGSTYYADSVKGRFTISRDNAKNTVYLQMNSLKPEDTAVYYCNADWSATSGEWTWFQYDYWGQGTQVTVSS	high polyreactivity
QVQLVESGGGFVQAGGSLRLSCAASGIIVRANAMGWYRQAPGKERELVAAISSSGGSTFYADSVKGRFTISLDNAKNYVYLQMNSLNPEDTAVYYCAAGRTKFAWSEYEYWGQGTQVTVSS	low polyreactivity
QVQLVESGGGLVQAGGSLRLSCPAYGYTILPNAMGWYRQAPGKEREFVAAISYSGGRTYYADSVKGRFTISRDNAKNTVYLQMNSLKPEDTAVYYCATELYGYRYDYWGQGTQVTVSS	low polyreactivity
QVQLVESGGGLVQAGGSLRLSCAASVSTFGRYVMGWYRQAPGKERELVAAISKNAGSTYYADSVKGRFTISRDNAKNTVYVQMNSLKPEDTAVYYCAADWRTKGYDSLGQGTQVTVSS	high polyreactivity
QVQLEESGGGLVQAGGSLRLSCAASGFIFSSNAMGWYRQAPGKESQLVARITRSDGSTYYADSVKGRFTISRDSAKNTVYLQMNSLKPEDTAFDYCAKGRDATHYEYYLYSMDYWGQGTQVTVSS	low polyreactivity
QVQLLQTGGGLVQAGGSLRLSCAASGSNFVIYAMGWYIQAPWNERELVATISGGGRTNYADSLKGRFTISRDNAKNTVYLQMNSLKPEDTAVYYCNGDQYGSYLGVGFDYWGQGTQVTVSS	high polyreactivity
QVQLVESGGGLVQAGGSLRLSCAASGRIFSFNAMGWYRQAPGKERELVAGITYGGNTYYADSVKGRFTISRDNAKNTVYLQMNSLKPEDPAVYYCAAVRGGRHDYWGQGTQVTVSS	low polyreactivity
QVQLVESGGGLVQAGGSLRLSCAASGSTFPWNAMGWHRQAPGKERELVAAISKSGGRTYYADSVKGRFTISRDNAKNTVYLQMNSLRPEDTAVYYCNALGSLDGRYGYWGQGTQVTVSS	high polyreactivity
QVQLVESGGGLVHAGGSLRLSCAASGRTFNWNAMGWYRQEPGKEREFVASINGGGSSYYADSVKGRFTISRDNAKNTVYLQMNSLKPDDTAVYYCAAPWVGTFVSGRCYYWGQGTHVTVSS	low polyreactivity
QVQLVESGGGLVQEGGSLRLSCAASGGTFWLYTMGWYRQAPGKERELVAAITKSGGSTYYADSVKGRFTISRDNAKNTVYLQMNSLKPEDTAVYDCAARYSVYRDGYYWGQGTQVTVSS	high polyreactivity
QVQLVESGGGLVQAGGSLRLSCAASGRTLAFNAMGWYRQAPGKERELVAVIRNGTSTNYADSVKGRFTISRDNAKNTVYLQMNSLKPEDTAVYYCNVPYYLPSYLSGYDYWGQGTQVTVSS	low polyreactivity
QVQLVESGGGLVQAGGSLRLSCAASGLIFYYYAMGWYRQAPGKERELVAAITTGGGTYYADSVKGRFTISRDNAKNTVYLQMNILKPEATAVFYCAVYYRSYWGYEYWGQGTQVTVSS	high polyreactivity
QVQLVESGGGLVQAGGSLSLSCAASGFIFHFNAMGWYIQAPGKEREVVAAISRTGGTTYYADSVKGRFTLSRDNAKNTVYLQMNSLKPEVTAVYYCAAYSTYGQHYDYWGQGTQVTVSS	high polyreactivity
QVQLVESGGGLVQAAPSLRLSCAASGSTINNNAMGWYRQAPRKERELVAAIDSGFSTNYADSVKGRFTISRDNAKNTVYLQMNSLKPEDTAVYYCYADPDYFDYWGQGTQVTVSS	low polyreactivity
QVQLVESGGGLVQAGGSLRLSCAASGYIFNGNAMGWYRQAPGKERELVATITRRGGSTYYADSVKGRFTISRDNAKNTVYLQMNSLKPEDTAVYYCNKRDYSGDYYGPLDYWGQGTQVTVSS	high polyreactivity
QVQLVESGGGLVQAGGSLRLSCAASGRIFLSYTMGWYRQAPGKERELVAAISRGGRTYYADSVKGRFTISRDNAKNTVYLQMNSLKPEDTAVYYCAKKYGRYGSLRGRTIDDYWGQGTQVTVSS	low polyreactivity
QVQLVESGGGLVQAGGSLRLSCAASGIIFPKYVMGWYRKAPGKERELVAAISWSGTSTYYADSVKGRFTISRDNAKNTVYLQMNSLKPEDTAVYYCAARWSSTTGRFDYWGQGTQVTVSS	high polyreactivity
